Consider 1 molecule from publication PMC10716038, “Talin and kindlin use integrin tail allostery and direct binding to activate integrins” (Nature Structural & Molecular Biology, 2023).

Several values for one entry are separate records, joined by “and”; a condition that tells them apart may be missing. Equal values may be shown once. No end group written: not given here.

Common to all, as to assay: MST; apparent; THD1 or THD1 mutants titrated to 488–β3-CT in the presence of 30-40 µM KIND2; MST buffer
Settings in all cases: both partners purified

The target in one assay is T1, THD1 K402E (UniProt P26039 1-405, K402E).
T1 construct: talin-1 (TLN1) head domain, residues 1-405, K402E; source: E. coli (DE3) Rosetta 2, purified (IMAC, SEC); not shown: His10-SUMO, N-terminal, cleaved

The next assay deals with T2, THD1 I399A (UniProt P26039 1-405, I399A).
T2 construct: talin-1 (TLN1) head domain, residues 1-405, I399A; source: E. coli (DE3) Rosetta 2, purified (IMAC, SEC); not shown: His10-SUMO, N-terminal, cleaved

The target of another assay is T3, THD1 K402A (UniProt P26039 1-405, K402A).
T3 construct: talin-1 (TLN1) head domain, residues 1-405, K402A; source: E. coli (DE3) Rosetta 2, purified (IMAC, SEC); not shown: His10-SUMO, N-terminal, cleaved

For the next assay, the target named is T4, THD1 K401A (UniProt P26039 1-405, K401A).
T4 construct: talin-1 (TLN1) head domain, residues 1-405, K401A; source: E. coli (DE3) Rosetta 2, purified (IMAC, SEC); not shown: His10-SUMO, N-terminal, cleaved

Another assay concerns the target T5, THD1 K404A (UniProt P26039 1-405, K404A).
T5 construct: talin-1 (TLN1) head domain, residues 1-405, K404A; source: E. coli (DE3) Rosetta 2, purified (IMAC, SEC); not shown: His10-SUMO, N-terminal, cleaved

A further assay addresses T6, THD1 Y395A (UniProt P26039 1-405, Y395A).
T6 construct: talin-1 (TLN1) head domain, residues 1-405, Y395A; source: E. coli (DE3) Rosetta 2, purified (IMAC, SEC); not shown: His10-SUMO, N-terminal, cleaved

A further assay deals with T7, THD1 K403E (UniProt P26039 1-405, K403E).
T7 construct: talin-1 (TLN1) head domain, residues 1-405, K403E; source: E. coli (DE3) Rosetta 2, purified (IMAC, SEC); not shown: His10-SUMO, N-terminal, cleaved

Another assay addresses T8, THD1 Δ401-405 (UniProt P26039 1-405, Δ401-405).
T8 construct: source: E. coli (DE3) Rosetta 2, purified (IMAC, SEC); not shown: His10-SUMO, N-terminal, cleaved

The target of a further assay is T9, THD1 L400A (UniProt P26039 1-405, L400A).
T9 construct: talin-1 (TLN1) head domain, residues 1-405, L400A; source: E. coli (DE3) Rosetta 2, purified (IMAC, SEC); not shown: His10-SUMO, N-terminal, cleaved

In another assay the target is T10, THD1 I398A (UniProt P26039 1-405, I398A).
T10 construct: talin-1 (TLN1) head domain, residues 1-405, I398A; source: E. coli (DE3) Rosetta 2, purified (IMAC, SEC); not shown: His10-SUMO, N-terminal, cleaved

A further assay addresses T11, THD1 K403A (UniProt P26039 1-405, K403A).
T11 construct: talin-1 (TLN1) head domain, residues 1-405, K403A; source: E. coli (DE3) Rosetta 2, purified (IMAC, SEC); not shown: His10-SUMO, N-terminal, cleaved

In assay [1] the target is T12, talin-1 head domain (THD1) (UniProt P26039 1-405).
T12 construct: talin-1 (TLN1) head domain (THD), residues 1-405; murine TLN1 cDNA is named only for the cell lines; also called WT; source: E. coli (DE3) Rosetta 2, purified (IMAC, SEC); not shown: His10-SUMO, N-terminal, cleaved

For another assay, the target named is T13, THD1 KKAA (UniProt P26039 1-405, KKAA (KK402/403)).
T13 construct: the sheet prints only 'KKAA'; source: E. coli (DE3) Rosetta 2, purified (IMAC, SEC); not shown: His10-SUMO, N-terminal, cleaved

In another assay the target is T14, THD1 I396A (UniProt P26039 1-405, I396A).
T14 construct: talin-1 (TLN1) head domain, residues 1-405, I396A; source: E. coli (DE3) Rosetta 2, purified (IMAC, SEC); not shown: His10-SUMO, N-terminal, cleaved
T14 sequence (P26039 1-405 I396A): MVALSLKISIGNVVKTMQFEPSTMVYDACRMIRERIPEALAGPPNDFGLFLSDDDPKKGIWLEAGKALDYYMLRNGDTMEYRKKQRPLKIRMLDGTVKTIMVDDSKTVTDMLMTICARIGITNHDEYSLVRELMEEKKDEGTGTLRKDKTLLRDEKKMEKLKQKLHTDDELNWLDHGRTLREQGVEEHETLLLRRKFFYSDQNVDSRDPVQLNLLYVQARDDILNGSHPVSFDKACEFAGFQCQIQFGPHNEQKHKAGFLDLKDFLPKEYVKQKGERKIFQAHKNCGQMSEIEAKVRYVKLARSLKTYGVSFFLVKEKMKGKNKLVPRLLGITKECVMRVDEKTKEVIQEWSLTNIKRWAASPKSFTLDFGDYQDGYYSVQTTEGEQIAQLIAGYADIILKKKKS

T1 sequence (P26039 1-405 K402E): as the sequence (P26039 1-405 I396A) above, with A396I, K402E counted along it
T9 sequence (P26039 1-405 L400A): as the sequence (P26039 1-405 I396A) above, with A396I, L400A counted along it
T12 sequence (P26039 1-405): as the sequence (P26039 1-405 I396A) above, with A396I counted along it
T3 sequence (P26039 1-405 K402A): as the sequence (P26039 1-405 I396A) above, with A396I, K402A counted along it
T2 sequence (P26039 1-405 I399A): as the sequence (P26039 1-405 I396A) above, with A396I, I399A counted along it
T11 sequence (P26039 1-405 K403A): as the sequence (P26039 1-405 I396A) above, with A396I, K403A counted along it
T6 sequence (P26039 1-405 Y395A): as the sequence (P26039 1-405 I396A) above, with Y395A, A396I counted along it
T5 sequence (P26039 1-405 K404A): as the sequence (P26039 1-405 I396A) above, with A396I, K404A counted along it
T8 sequence (P26039 1-400, stated change not applied): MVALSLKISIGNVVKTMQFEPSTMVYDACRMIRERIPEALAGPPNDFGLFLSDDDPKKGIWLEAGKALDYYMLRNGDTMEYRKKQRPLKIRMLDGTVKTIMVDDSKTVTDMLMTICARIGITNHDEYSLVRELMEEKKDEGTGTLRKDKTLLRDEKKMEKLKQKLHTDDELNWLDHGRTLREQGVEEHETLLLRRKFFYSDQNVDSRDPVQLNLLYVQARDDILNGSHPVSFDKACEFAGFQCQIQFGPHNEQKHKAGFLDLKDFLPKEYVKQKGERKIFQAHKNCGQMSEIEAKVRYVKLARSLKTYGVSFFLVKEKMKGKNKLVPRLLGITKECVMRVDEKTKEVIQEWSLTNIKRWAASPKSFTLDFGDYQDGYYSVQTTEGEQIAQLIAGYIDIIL
T13 sequence (P26039 other isoform, or with tags, fused parts or gaps KKAA (KK402/403) | KKAA (KK402/403)): as the sequence (P26039 1-405 I396A) above, with A396I, K402A, K403A counted along it
T4 sequence (P26039 1-405 K401A): as the sequence (P26039 1-405 I396A) above, with A396I, K401A counted along it
T7 sequence (P26039 1-405 K403E): as the sequence (P26039 1-405 I396A) above, with A396I, K403E counted along it
T10 sequence (P26039 1-405 I398A): as the sequence (P26039 1-405 I396A) above, with A396I, I398A counted along it

B1: ATTO 488-labeled integrin β3 cytoplasmic tail (488–β3-CT) (peptide, UniProt O54890 741-787, looked up)
peptide: {ATTO 488}-KLLITIHDRKEFAKFEEERARAKWDTANNPLYKEATSTFTNITYRGT
notes: integrin β3 cytoplasmic tail (β3-CT); source: synthetic peptide (MPIB Core Facility)
For B1, the Kd with THD1 K402E is 54.3 µM and 67.7 µM and 70.3 µM; in the assay with THD1 I399A, 91 µM; in the assay with THD1 K402A, 117 µM; with THD1 K401A it was 148 µM; in the assay with THD1 K404A it was 116 µM; with THD1 Y395A, 42 µM. Besides, the Kd with THD1 K403E was determined as 116 µM; with THD1 Δ401-405, 560 µM; in the assay with THD1 L400A it was 180 µM; with THD1 I398A, 155 µM; with THD1 K403A, 114 µM; in [1], 95 µM. Moreover, the results for the Kd with THD1 KKAA and in the assay with THD1 I396A were 88.3 µM and 551 µM, respectively.
